This note sets out measurements from US20230118302 (published 2023).

Residue numbers refer to the chain shown, from its start. Read-outs that look alike come from different tables or passages of the source.

A word on the Kd: it is the equilibrium constant for the complex coming apart. A lower Kd goes with higher affinity.

In test [1] the target is T1, HER2 ECD (human, UniProt P04626). The experiment in a line: SPR. (In SPR one partner is held on a chip, and binding of the other changes the refractive index at the surface.)
The target in test [2] is T1, HER2 ECD. The experiment in a line: SPR. The source holds these as a separate data set.
For test [3], the target named is T2, HER2 on cells (human, UniProt P04626). The experiment in a line: FACS, MCF7. In general terms: Flow cytometry measures light scatter and fluorescence of single cells or particles in a stream.
The target in test [4] is T2, HER2 on cells. The experiment in a line: FACS, MCF7. The source holds these as a separate data set.
Test [5] has as its target T2, HER2 on cells. As to the kind of experiment: FACS, WI-38.
The target of test [6] is CD16a V158 (human, UniProt P08637). As to the kind of experiment: SPR.
Chain of CD16a V158 (P08637 17-208 F176V): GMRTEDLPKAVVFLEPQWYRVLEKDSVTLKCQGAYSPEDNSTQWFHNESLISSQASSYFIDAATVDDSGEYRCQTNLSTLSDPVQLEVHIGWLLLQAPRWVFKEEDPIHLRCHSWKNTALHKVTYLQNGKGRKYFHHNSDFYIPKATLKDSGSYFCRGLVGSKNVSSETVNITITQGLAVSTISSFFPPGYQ

B1: v10014 (antibody, V domains shown)
VH: EVQLVESGGGLVQPGGSLRLSCAASGFTFADYTMDWVRQAPGKGLEWVADVNPNSGGSIYNQRFKGRFTLSVDRSKNTLYLQMNSLRAEDTAVYYCARNLGPSFYFDYWGQGTLVTVSS
VL: DIQMTQSPSSLSASVGDRVTITCKASQDVSIGVAWYQQKPGKAPKLLIYSASYRYTGVPSRFSGSGSGTDFTLTISSLQPEDFATYYCQQYYIYPATFGQGTKVEIK
Regarding B1, the figures for the Kd in test [1] and in test [2] were 2 nM and 2.1 nM, respectively.

B2: v10000 (antibody)
chain 1: EVQLVESGGGLVQPGGSLRLSCAASGFTFADYTMDWVRQAPGKGLEWVGDVNPNSGGSIYNQRFKGRFTFSVDRSKNTLYLQMNSLRAEDTAVYYCARNLGPSFYFDYWGQGTLVTVSSASTKGPSVFPLAPSSKSTSGGTAALGCLVKDYFPEPVTVSWNSGALTSGVHTFPAVLQSSGLYSLSSVVTVPSSSLGTQTYICNVNHKPSNTKVDKKVEPKSCDKTHTCPPCPAPELLGGPSVFLFPPKPKDTLMISRTPEVTCVVVDVSHEDPEVKFNWYVDGVEVHNAKTKPREEQYNSTYRVVSVLTVLHQDWLNGKEYKCKVSNKALPAPIEKTISKAKGQPREPQVYVYPPSRDELTKNQVSLTCLVKGFYPSDIAVEWESNGQPENNYKTTPPVLDSDGSFALVSKLTVDKSRWQQGNVFSCSVMHEALHNHYTQKSLSLSPG
chain 2: not shown
chain 3: not shown
Take B2: the Kd in test [3] is 6.8 nM; in test [4], 3.7 nM; in test [5], 8.4 nM.

B3: v7148 (antibody)
chain 1: B2 chain 1 with A30T, G49A, F70L
chain 2: not shown
chain 3: not shown
modifications: v7091 conjugated to SMCC-DM1
As for B3, in test [6], the equilibrium dissociation constant (Kd) was found to be 120 nM.

B4: v7091 (antibody)
chain 1: B2 chain 1 with A30T, G49A, F70L
chain 2: not shown
chain 3: not shown
B4 displayed a Kd in test [6] of 120 nM.
